# In the supplement of paper PMC10567573:
# B1: RSPH3 (parent)
# chain: LELQRQREARKRALARKQAQEQLR
# Variants of: B1
# Assay: protein stability index of a GFP-peptide fusion (GPS, HEK-293T) (PSI 1-6); higher = more stable
# Conditions: c terminus: a fixed tail appended
# 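Note: lentivirally expressed fusions sorted by FACS into six bins by GFP to DsRed ratio, PSI derived from sequencing read proportions per bin multiplied by bin number.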
row,Variant,protein stability index
1,A15R,3.15
2,A15W,3.53
3,A15S,4.04
4,A15I,3.15
5,A15C,3.42
6,A15E,4.31
7,A15Q,2.39
8,A15N,4.32
9,A15G,4.12
10,A15P,4.2
11,A15V,3.69
12,A15K,3.57
13,A15M,2.79
14,A15L,4.05
15,A15D,3.94
16,A15Y,3.61
17,A15H,3.96
18,A15F,3.56
19,R7W,3.46
20,R7K,3.56
21,R7L,4.2
22,R7S,4.36
23,R7D,4.49
24,R7V,4.02

row,Variant,protein stability index
1,R7E,4.31
2,R7A,3.61
3,R7F,4.1
4,R7Y,3.85
5,R7N,4.08
6,R7P,3.71
7,R7G,4.52
8,R7Q,4.01
9,R7H,4.29
10,R7M,3.52
11,R7I,3.25
12,R7T,4.43
13,R7C,3.87
14,R24H,3.85
15,R24G,4.13
16,R24K,3.72
17,R24L,3.18
18,R24N,4.23
19,R24A,3.97
20,R24F,3.77
21,R24C,4.13
22,R24I,3.46
23,R24E,4.56
24,R24P,3.86

row,Variant,protein stability index
1,R24Q,4.54
2,R24M,3.33
3,R24D,4.2
4,E8W,3
5,E8C,3.64
6,E8S,3.62
7,E8K,3.95
8,E8Y,3.46
9,E8L,2.98
10,E8V,3.39
11,E8A,3.99
12,E8D,3.81
13,E8R,4.26
14,E8T,4.06
15,E8H,3.83
16,E8G,3.66
17,E8I,2.38
18,E8M,3.43
19,E8Q,3.71
20,E8P,3.67
21,E8F,3.24
22,E8N,3.44
23,A13Y,3.49
24,A13T,3.85

row,Variant,protein stability index
1,A13Q,4.45
2,A13L,3.35
3,A13P,4.14
4,A13C,3.24
5,A13M,3.29
6,A13S,3.77
7,A13K,3.36
8,A13E,4.5
9,A13R,4.18
10,A13D,4.07
11,A13V,3.78
12,A13I,3.76
13,A13G,3.33
14,A13H,4.06
15,A13F,3.39
16,A13N,4.25
17,A13W,3.73
18,Q20L,2.8
19,Q20M,2.88
20,Q20G,3.52
21,Q20V,3.78
22,Q20H,3.77
23,Q20F,2.02
24,Q20S,3.77

row,Variant,protein stability index
1,Q20N,3.11
2,Q20P,4.32
3,Q20K,4.38
4,Q20E,4.48
5,Q20D,4.74
6,Q20C,3.35
7,Q20Y,2.45
8,Q20W,2.04
9,Q20R,3.79
10,Q20A,3.61
11,Q20T,3.79
12,Q20I,3.47
13,A19F,3.08
14,A19V,3.27
15,A19I,3.55
16,A19D,4.37
17,A19E,3.28
18,A19Y,2.92
19,A19Q,4.54
20,A19W,3.15
21,A19N,4.08
22,A19P,3.72
23,A19L,3.09
24,A19H,4.33

row,Variant,protein stability index
1,A19T,4
2,A19K,4.08
3,A19S,4.17
4,A19M,3.37
5,A19G,3.53
6,A19C,4.22
7,E21Q,3.23
8,E21D,3.62
9,E21H,3.23
10,E21N,3.87
11,E21A,2.72
12,E21M,3.75
13,E21L,3.48
14,E21T,3.81
15,E21G,3.09
16,E21V,3.31
17,E21S,3.73
18,E21R,3.99
19,E21F,2.93
20,E21I,3.33
21,E21C,3.01
22,E21K,4.28
23,E21W,3.48
24,E21Y,3

row,Variant,protein stability index
1,E21P,3.45
2,A9E,3.85
3,A9L,3.47
4,A9Y,3.71
5,A9I,3.39
6,A9Q,3.32
7,A9G,4.04
8,A9K,3.68
9,A9F,2.73
10,A9D,3.63
11,A9H,4.07
12,A9P,4
13,A9W,2.86
14,A9S,4.01
15,A9M,3.84
16,A9N,3.45
17,A9T,3.31
18,A9C,4.05
19,A9V,3.71
20,A9R,4.11
21,R10G,4.26
22,R10A,4.57
23,R10Y,3.17
24,R10V,3.38

row,Variant,protein stability index
1,R10W,3.53
2,R10L,3.62
3,R10N,4.28
4,R10D,4.38
5,R10C,3.43
6,R10P,4.3
7,R10H,3.79
8,R10I,3.22
9,R10M,3.76
10,R10E,4.08
11,R10F,3.52
12,R10Q,4.43
13,R10S,4.2
14,R10T,3.92
15,R10K,3.07
16,R12Y,3.77
17,R12M,4.18
18,R12I,4.21
19,R12P,4.25
20,R12C,3.9
21,R12A,4.23
22,R12V,3.81
23,R12Q,4.33
24,R12N,4.45

row,Variant,protein stability index
1,R12G,4.23
2,R12K,3.97
3,R12S,3.81
4,R12T,3.79
5,R12D,4.15
6,R12E,4.71
7,R12F,2.82
8,R12W,3.21
9,R12H,3.71
10,R12L,3.22
11,K17L,3.97
12,K17N,4.45
13,K17W,3.44
14,K17G,4.66
15,K17I,3.77
16,K17P,4.48
17,K17F,3.95
18,K17R,4.38
19,K17Y,3.71
20,K17A,4.1
21,K17V,4.31
22,K17D,3.92
23,K17S,4.21
24,K17Q,4.15

row,Variant,protein stability index
1,K17E,4.69
2,K17T,4.43
3,K17C,3.77
4,K17M,4.14
5,K17H,4.17
6,Q18C,2.81
7,Q18R,3.64
8,Q18W,2.5
9,Q18T,4.05
10,Q18M,3.46
11,Q18G,3.4
12,Q18H,3.11
13,Q18Y,2.81
14,Q18S,3.38
15,Q18F,3.53
16,Q18A,3.12
17,Q18L,3.13
18,Q18I,2.33
19,Q18E,3.86
20,Q18N,3.68
21,Q18V,2.56
22,Q18P,4.32
23,Q18K,3.39
24,L14Q,4.53

row,Variant,protein stability index
1,L14V,4.13
2,L14T,4.19
3,L14P,4.39
4,L14K,3.46
5,L14I,3.67
6,L14E,4.35
7,L14C,3.74
8,L14A,4.46
9,L14N,4.04
10,L14G,4.75
11,L14S,4.42
12,L14H,4.32
13,L14D,4.66
14,L14M,3.32
15,L14F,3.74
16,L14R,4.4
17,L14Y,3.22
18,L14W,2.65
19,Q22S,3.5
20,Q22D,4.29
21,Q22T,3.16
22,Q22E,3.8
23,Q22V,3.37
24,Q22R,3.93

row,Variant,protein stability index
1,Q22Y,3.01
2,Q22A,4.19
3,Q22L,3.63
4,Q22I,2.65
5,Q22M,2.92
6,Q22F,3.04
7,Q22P,3.79
8,Q22G,4.22
9,Q22C,3.11
10,Q22N,4.14
11,Q22H,2.95
12,Q22K,3.77
13,Q22W,2.8
14,L23D,4.42
15,L23Q,4.35
16,L23F,3.96
17,L23W,3.69
18,L23I,3.56
19,L23K,3.83
20,L23A,4.96
21,L23V,2.77
22,L23M,4.31
23,L23Y,3.9
24,L23P,3.78

row,Variant,protein stability index
1,L23N,3.92
2,L23H,4.25
3,L23R,4.16
4,L23E,4.59
5,L23T,4.08
6,L23C,4.26
7,L23G,4.78
8,L23S,3.78
9,R16F,3.43
10,R16A,4.19
11,R16P,4.32
12,R16C,3.57
13,R16N,4.6
14,R16M,3.39
15,R16W,3.74
16,R16V,3.17
17,R16S,3.27
18,R16E,4.26
19,R16Y,3.4
20,R16Q,3.96
21,R16G,4.46
22,R16T,4.02
23,R16K,3.93
24,R16I,3.7

row,Variant,protein stability index
1,R16D,3.99
2,R16H,4.14
3,R16L,4.25
4,K11A,3.84
5,K11S,4.11
6,K11W,2.92
7,K11Q,4.35
8,K11H,4.44
9,K11V,2.74
10,K11F,3.46
11,K11P,3.82
12,K11M,3.5
13,K11D,4.51
14,K11Y,3.07
15,K11R,3.78
16,K11E,4.35
17,K11I,3.27
18,K11G,4.44
19,K11T,3.46
20,K11L,3.82
21,K11C,2.94
22,K11N,3.8
